Consider 2 molecules from article PMC4527729, “The Inner Membrane Protein PilG Interacts with DNA and the Secretin PilQ in Transformation”.

For data set [1], the target named is PilG257-410 (Neisseria meningitidis MC58, UniProt Q7DDR1 257-410). In words: South-western; Optimized EMSA: 50 mM HEPES pH 7.5, 100 mM NaCl, 5 mM MgCl2, 1 mM DTT, 10% glycerol, 0.05% DDM, on ice 15 min, 0.45 nM DNA; first EMSA: 25 mM NaH2PO4 pH 8.0, 150 mM NaCl, 1 mM DTT, 10% glycerol, 0.05% DDM, on ice. The settings on record: protein: recombinant, tags: C-terminal 6xHis, label: 32P end label. (In general: A gel shift assay detects complexes by their altered migration in electrophoresis.)

The target in data set [2] is PilG166-410 (Neisseria meningitidis MC58, UniProt Q7DDR1 166-410). Described as above. The following applies: protein: recombinant, tags: C-terminal 6xHis, label: 32P end label.
The target in data set [3] is PilG1-60 (Neisseria meningitidis MC58, UniProt Q7DDR1 1-60). The description is as above. The settings on record: protein: recombinant, tags: C-terminal 6xHis, label: 32P end label.
The target of data set [4] is PilG30-80 (Neisseria meningitidis MC58, UniProt Q7DDR1 30-80). The data set is described as above. The settings on record: protein: recombinant, tags: C-terminal 6xHis, label: 32P end label.
The target of data set [5] is T1, PilG1-178 (Neisseria meningitidis MC58, UniProt Q7DDR1 1-178). In words: EMSA; 5 mM MgCl2; DUS+ duplex assigned by Table 2 EMSA footnote; Optimized EMSA: 50 mM HEPES pH 7.5, 100 mM NaCl, 5 mM MgCl2, 1 mM DTT, 10% glycerol, 0.05% DDM, on ice 15 min, 0.45 nM DNA; first EMSA: 25 mM NaH2PO4 pH 8.0, 150 mM NaCl, 1 mM DTT, 10% glycerol, 0.05% DDM, on ice. The following applies: protein: recombinant; tags: C-terminal 6xHis; label: 32P end label; blunt.

Data set [6] deals with PilG RKK43-45AAA (Neisseria meningitidis MC58, UniProt Q7DDR1 1-410, R43A;K44A;K45A). The data set is described as follows: EMSA; extrapolated; about 50% bound at 5 uM per text; Optimized EMSA: 50 mM HEPES pH 7.5, 100 mM NaCl, 5 mM MgCl2, 1 mM DTT, 10% glycerol, 0.05% DDM, on ice 15 min, 0.45 nM DNA; first EMSA: 25 mM NaH2PO4 pH 8.0, 150 mM NaCl, 1 mM DTT, 10% glycerol, 0.05% DDM, on ice. The following applies: protein: recombinant; tags: C-terminal 6xHis; label: 32P end label; blunt.

Data set [7] deals with T2, PilG1-80 (Neisseria meningitidis MC58, UniProt Q7DDR1 1-80). The data set is described as follows: EMSA; 5 mM MgCl2; Optimized EMSA: 50 mM HEPES pH 7.5, 100 mM NaCl, 5 mM MgCl2, 1 mM DTT, 10% glycerol, 0.05% DDM, on ice 15 min, 0.45 nM DNA; first EMSA: 25 mM NaH2PO4 pH 8.0, 150 mM NaCl, 1 mM DTT, 10% glycerol, 0.05% DDM, on ice. The following applies: protein: recombinant; tags: C-terminal 6xHis; label: 32P end label; blunt.

The target in data set [8] is T3, PilG EEE39-41AAA (Neisseria meningitidis MC58, UniProt Q7DDR1 1-410, E39A;E40A;E41A). The data set is described as follows: South-western; increased vs FL per text; Optimized EMSA: 50 mM HEPES pH 7.5, 100 mM NaCl, 5 mM MgCl2, 1 mM DTT, 10% glycerol, 0.05% DDM, on ice 15 min, 0.45 nM DNA; first EMSA: 25 mM NaH2PO4 pH 8.0, 150 mM NaCl, 1 mM DTT, 10% glycerol, 0.05% DDM, on ice. The settings on record: protein: recombinant; tags: C-terminal 6xHis; label: 32P end label; blunt.

In data set [9] the target is PilG Q55A (Neisseria meningitidis MC58, UniProt Q7DDR1 1-410, Q55A). In words: South-western; same as FL; Optimized EMSA: 50 mM HEPES pH 7.5, 100 mM NaCl, 5 mM MgCl2, 1 mM DTT, 10% glycerol, 0.05% DDM, on ice 15 min, 0.45 nM DNA; first EMSA: 25 mM NaH2PO4 pH 8.0, 150 mM NaCl, 1 mM DTT, 10% glycerol, 0.05% DDM, on ice. The following applies: protein: recombinant, tags: C-terminal 6xHis, label: 32P end label.

In data set [10] the target is PilG SS62-63AA (Neisseria meningitidis MC58, UniProt Q7DDR1 1-410, S62A;S63A). The description is as above. The settings on record: protein: recombinant, tags: C-terminal 6xHis, label: 32P end label.
Data set [11] concerns the target T4, PilG FL (Neisseria meningitidis MC58, UniProt Q7DDR1 1-410). In words: EMSA; optimized EMSA; R2 0.96?; Optimized EMSA: 50 mM HEPES pH 7.5, 100 mM NaCl, 5 mM MgCl2, 1 mM DTT, 10% glycerol, 0.05% DDM, on ice 15 min, 0.45 nM DNA; first EMSA: 25 mM NaH2PO4 pH 8.0, 150 mM NaCl, 1 mM DTT, 10% glycerol, 0.05% DDM, on ice. The settings on record: protein: recombinant; tags: C-terminal 6xHis; label: 32P end label; blunt.

Data set [12] deals with T2, PilG1-80. In words: South-western; Optimized EMSA: 50 mM HEPES pH 7.5, 100 mM NaCl, 5 mM MgCl2, 1 mM DTT, 10% glycerol, 0.05% DDM, on ice 15 min, 0.45 nM DNA; first EMSA: 25 mM NaH2PO4 pH 8.0, 150 mM NaCl, 1 mM DTT, 10% glycerol, 0.05% DDM, on ice. The settings on record: protein: recombinant; tags: C-terminal 6xHis; label: 32P end label.
The target in data set [13] is PilG1-140 (Neisseria meningitidis MC58, UniProt Q7DDR1 1-140). Described as above. The following applies: protein: recombinant; tags: C-terminal 6xHis; label: 32P end label.
Data set [14] concerns the target T1, PilG1-178. The description is as above. The following applies: protein: recombinant; tags: C-terminal 6xHis; label: 32P end label.
Data set [15] concerns the target PilG1-256 (Neisseria meningitidis MC58, UniProt Q7DDR1 1-256). The description is as above. The following applies: protein: recombinant; tags: C-terminal 6xHis; label: 32P end label.
In data set [16] the target is T4, PilG FL. Described as above. The settings on record: protein: recombinant; tags: C-terminal 6xHis; label: 32P end label.
The target of data set [17] is T3, PilG EEE39-41AAA. In words: South-western; increased vs FL; Optimized EMSA: 50 mM HEPES pH 7.5, 100 mM NaCl, 5 mM MgCl2, 1 mM DTT, 10% glycerol, 0.05% DDM, on ice 15 min, 0.45 nM DNA; first EMSA: 25 mM NaH2PO4 pH 8.0, 150 mM NaCl, 1 mM DTT, 10% glycerol, 0.05% DDM, on ice. The following applies: protein: recombinant; tags: C-terminal 6xHis; label: 32P end label.

B1: HH7HH8 (dsDNA)
DNA 1: AACAACAACAAATGCCGTCTGAACCAACATGCCGTCTGAAAACAACAACAAC
DNA 2: GTTGTTGTTGTTTTCAGACGGCATGTTGGTTCAGACGGCATTTGTTGTTGTT
Take B1: the binding result in [1] (blunt) is listed as “no binding”; in [2] (blunt), “no binding”; in data set [3] (blunt), “no binding”; in data set [4] (blunt) it was “no binding”; in data set [8] it was “binds”; in data set [9] (blunt), “binds”. The binding result in data set [10] (blunt) is given as “binds”. Moreover, the “apparent K (half saturation)” value is 269 nM in data set [5], about 685 µM in [6], 283 nM in [7] and 1070 nM in data set [11].

B2: HH9 (ssDNA)
DNA: GTTGTTGTTGTTATGCCGTCTGAAGTTGGATGCCGTCTGAATTGTTGTTGTT
On to B2, for which the binding result in data set [1] was “no binding”; in [12], “binds”; in [2], “no binding”; in data set [13], “binds”; in [14] it was “binds”; in data set [15], “binds”. Besides, the binding result in data set [3] is reported as “no binding”; in [16], “binds”; in data set [4], “no binding”; in [17], “binds”; in data set [9] it was “binds”; in [10], “binds”.
